# Where a chain is given by its changes, count along the chain named.
# T1: FcγRIIa type H extracellular domain with C-terminal His tag (human, UniProt P12318 34-217)
# T1 construct: extracellular domain; also called FcgRIIa H; FcγRIIa H
# T1 sequence (looked up): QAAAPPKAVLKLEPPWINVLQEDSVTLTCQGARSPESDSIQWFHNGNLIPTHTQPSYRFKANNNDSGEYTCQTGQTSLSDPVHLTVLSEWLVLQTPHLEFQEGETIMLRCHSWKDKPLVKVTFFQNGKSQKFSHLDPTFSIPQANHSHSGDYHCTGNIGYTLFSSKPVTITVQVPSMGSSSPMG
# T2: FcγRIIb extracellular domain with C-terminal His tag (human, UniProt P31994 43-217)
# T2 construct: extracellular domain; also called FcgRIIb
# T2 sequence (looked up): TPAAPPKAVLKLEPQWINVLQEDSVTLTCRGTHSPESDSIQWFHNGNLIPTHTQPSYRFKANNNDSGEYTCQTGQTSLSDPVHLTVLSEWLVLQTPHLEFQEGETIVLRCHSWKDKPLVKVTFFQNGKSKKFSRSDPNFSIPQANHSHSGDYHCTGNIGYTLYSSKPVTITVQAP
# T3: FcγRIIa type R extracellular domain with C-terminal His tag (human, UniProt P12318 34-217)
# T3 construct: extracellular domain; also called FcgRIIa R; FcγRIIa R
# T3 sequence (looked up): T1 sequence (looked up) with H134R
# B1: GpH7-Kn033/GpH7-Hl033/GpL16-k0 (antibody, human IgG1, kappa)
# heavy 1: not shown
# heavy 2: not shown
# light: DIVMTQSPLSLPVTPGEPASISCQASESLVHSNRNTYLHWYLQKPGQSPQLLIYKVSNRFSGVPDRFSGSGSGTDFTLKISRVEAEDVGVYYCSQNTHVPPTFGQGTKVEIERTVAAPSVFIFPPSDEQLKSGTASVVCLLNNFYPREAKVQWKVDNALQSGNSQESVTEQDSKDSTYSLSSTLTLSKADYEKHKVYACEVTHQGLSSPVTKSFNRGEC
# notes: Anti-glypican-3 IgG1 with knobs-into-holes alone; also called Kn033/Hl033
# B2: GpH7-Kn037/GpH7-Hl036/GpL16-k0 (antibody, human IgG1, kappa)
# heavy 1: QVQLVQSGAEVKKPGASVTVSCKASGYTFTDYEMHWIRQPPGEGLEWIGAIDPKTGDTAYSESFQDRVTLTADKSTSTAYMELSSLTSEDTAVYYCTRFYSYTYWGQGTLVTVSSASTKGPSVFPLAPSSKSTSGGTAALGCLVKDYFPEPVTVSWNSGALTSGVHTFPAVLQSSGLYSLSSVVTVPSSSLGTQTYICNVNHKPSNTKVDKKVEPKSCDKTHTCPPCPAPELLAGPDVFLFPPKPKDTLMISRTPEVTCVVVDVSHEDPEVKFNWYVDGVEVHNAKTKPREEQYNSTYRVVSVLTVLHQDWLNGKEYKCKVSNKALPAPEEKTISKAKGQPREPQVCTLPPSRDELTKNQVSLWCLVKGFYPSDIAVEWESNGQPENNYKTTPPVLDSDGSFFLYSKLTVDKSRWQQGNVFSCSVMHEALHNHYTQKSLSLSP
# heavy 2: B2 heavy 1 with C347Y, D354C, W364S, L366A, Y405V
# light: B1 light
# notes: also called Kn037/Hl036
# B3: GpH7-Kn045/GpH7-Hl055/GpL16-k0 (antibody, human IgG1, kappa)
# heavy 1: B2 heavy 1 with L232Y, L233Y, D237S, H266D, S296A, E330I
# heavy 2: B2 heavy 1 with Q293L, A328M, C347Y, D354C, W364S, L366A, Y405V
# light: B1 light
# notes: Heterodimerized anti-glypican-3 IgG1; also called Kn045/Hl055
# Target: T1, FcγRIIa type H extracellular domain …
# Experiment: SPR (Biacore T100), antibody captured on antigen-peptide chip, FcγR analyte, 1:1 Langmuir fit
# Protocol: (§1) These antibodies were assessed for the binding activity to each FcγR according to the method described in Reference Example 2.
# (§2) Analysis of interaction between objective antibody and the FcγR was carried out using Biacore T100 (GE Healthcare). HBS-EP+ (GE Healthcare) was used as the running buffer, and the measurement temperature was set to 25° C. Chips produced by immobilizing the antigen peptide by the amine coupling method to a Series S Sencor Chip CM5 (GE Healthcare), or alternatively, chips produced by allowing preliminarily biotinylated antigen peptides to interact with and immobilize onto a Series S Sensor Chip SA (certified) (GE Healthcare) were used. Antibodies of interest were captured onto an antigen peptide-immobilized chip, and allowed to interact to each FcγR diluted with running buffer. To regenerate and repeatedly use the chip, the antibodies captured on the chip were washed off by reacting 10 mM glycine-HCl, pH 1.5.
# (§3) The FcγR-binding activity of each antibody was assessed primarily using as an indicator the FcγR-binding activity and dissociation constant for FcγR.
row,Kd,Binder
1,590 nM,B1
2,27 nM,B2
3,29 nM,B3

# Target: T4, FcγRIIIa type V extracellular domain with C-terminal His tag (human, UniProt P08637 17-208)
# T4 construct: extracellular domain; also called FcgRIIIa V; FcγRIIIa V
# Experiment: as above
# Protocol: as §1, §2, §3
# T4 sequence (P08637 17-208 F176V): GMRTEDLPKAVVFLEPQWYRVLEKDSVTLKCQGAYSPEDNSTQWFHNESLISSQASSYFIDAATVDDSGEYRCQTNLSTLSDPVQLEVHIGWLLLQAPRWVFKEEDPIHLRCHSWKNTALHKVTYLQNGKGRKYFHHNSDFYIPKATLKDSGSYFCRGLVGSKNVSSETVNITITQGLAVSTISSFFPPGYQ
row,Kd,Binder
1,220 nM,B1
2,2.6 nM,B2
3,0.72 nM,B3

# Target: T5, FcγRIa extracellular domain with C-terminal His tag (human, UniProt P12314 16-292)
# T5 construct: extracellular domain; also called FcgRIa; FcgRI
# Experiment: as above
# Protocol: as §1, §2, §3
# T5 sequence (P12314 16-292): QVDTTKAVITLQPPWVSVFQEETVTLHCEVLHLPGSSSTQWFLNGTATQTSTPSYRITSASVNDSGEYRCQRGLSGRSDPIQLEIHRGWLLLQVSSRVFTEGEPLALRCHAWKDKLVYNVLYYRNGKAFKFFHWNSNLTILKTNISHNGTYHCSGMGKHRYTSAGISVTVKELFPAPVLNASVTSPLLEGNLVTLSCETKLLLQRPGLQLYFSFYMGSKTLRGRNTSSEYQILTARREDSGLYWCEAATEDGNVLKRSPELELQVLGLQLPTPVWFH
row,Kd,Binder
1,0.069 nM,B1
2,0.012 nM,B2
3,0.019 nM,B3

# Target: T6, FcγRIIIa type F extracellular domain with C-terminal His tag (human, UniProt P08637 17-208)
# T6 construct: extracellular domain; also called FcgRIIIa F; FcγRIIIa F
# Experiment: as above
# Protocol: as §1, §2, §3
# T6 sequence (P08637 17-208): as the sequence (P08637 17-208 F176V) above, with V160F counted along it
row,Kd,Binder
1,1600 nM,B1
2,9.7 nM,B2
3,1.6 nM,B3

# Target: T2, FcγRIIb extracellular domain with …
# Experiment: as above
# Protocol: as §1, §2, §3
row,Kd,Binder
1,3600 nM,B1
2,230 nM,B2
3,240 nM,B3

# Target: T3, FcγRIIa type R extracellular domain …
# Experiment: as above
# Protocol: as §1, §2, §3
row,Kd,Binder
1,740 nM,B1
2,17 nM,B2
3,13 nM,B3

# Target: T1, FcγRIIa type H extracellular domain …
# Experiment: SPR (Biacore T100), ratio of KD values
# Protocol: as §1, §2, §3
row,KD ratio,Binder
1,1 fold (KD of GpH7-Kn033/GpH7-Hl033/GpL16-k0 divided by KD of this antibody),B1
2,22 fold (KD of GpH7-Kn033/GpH7-Hl033/GpL16-k0 divided by KD of this antibody),B2
3,21 fold (KD of GpH7-Kn033/GpH7-Hl033/GpL16-k0 divided by KD of this antibody),B3

# Target: T4, FcγRIIIa type V extracellular domain …
# Experiment: SPR (Biacore T100), ratio of KD values
# Protocol: as §1, §2, §3
row,KD ratio,Binder
1,1 fold (KD of GpH7-Kn033/GpH7-Hl033/GpL16-k0 divided by KD of this antibody),B1
2,84 fold (KD of GpH7-Kn033/GpH7-Hl033/GpL16-k0 divided by KD of this antibody),B2
3,300 fold (KD of GpH7-Kn033/GpH7-Hl033/GpL16-k0 divided by KD of this antibody),B3

# Target: T5, FcγRIa extracellular domain with …
# Experiment: SPR (Biacore T100), ratio of KD values
# Protocol: as §1, §2, §3
row,KD ratio,Binder
1,1 fold (KD of GpH7-Kn033/GpH7-Hl033/GpL16-k0 divided by KD of this antibody),B1
2,6 fold (KD of GpH7-Kn033/GpH7-Hl033/GpL16-k0 divided by KD of this antibody),B2
3,3.7 fold (KD of GpH7-Kn033/GpH7-Hl033/GpL16-k0 divided by KD of this antibody),B3

# Target: T6, FcγRIIIa type F extracellular domain …
# Experiment: SPR (Biacore T100), ratio of KD values
# Protocol: as §1, §2, §3
row,KD ratio,Binder
1,1 fold (KD of GpH7-Kn033/GpH7-Hl033/GpL16-k0 divided by KD of this antibody),B1
2,161 fold (KD of GpH7-Kn033/GpH7-Hl033/GpL16-k0 divided by KD of this antibody),B2
3,985 fold (KD of GpH7-Kn033/GpH7-Hl033/GpL16-k0 divided by KD of this antibody),B3

# Target: T2, FcγRIIb extracellular domain with …
# Experiment: SPR (Biacore T100), ratio of KD values
# Protocol: as §1, §2, §3
row,KD ratio,Binder
1,1 fold (KD of GpH7-Kn033/GpH7-Hl033/GpL16-k0 divided by KD of this antibody),B1
2,16 fold (KD of GpH7-Kn033/GpH7-Hl033/GpL16-k0 divided by KD of this antibody),B2
3,15 fold (KD of GpH7-Kn033/GpH7-Hl033/GpL16-k0 divided by KD of this antibody),B3

# Target: T3, FcγRIIa type R extracellular domain …
# Experiment: SPR (Biacore T100), ratio of KD values
# Protocol: as §1, §2, §3
row,KD ratio,Binder
1,1 fold (KD of GpH7-Kn033/GpH7-Hl033/GpL16-k0 divided by KD of this antibody),B1
2,43 fold (KD of GpH7-Kn033/GpH7-Hl033/GpL16-k0 divided by KD of this antibody),B2
3,56 fold (KD of GpH7-Kn033/GpH7-Hl033/GpL16-k0 divided by KD of this antibody),B3

# From patent publication US20180155451A1 (published 2018)
